{
  "source": "paper PMC3771917",
  "about": "“The Crystal Structure of the Orphan Nuclear Receptor NR2E3/PNR Ligand Binding Domain Reveals a Dimeric Auto-Repressed Conformation” (PLoS ONE, 2013)",
  "parents": {"B1": {"name": "NR2E3 LBD (residues 192-410), wild type, as Gal4DBD–NR2E3LBD and VP16AD–NR2E3LBD [human] / itself (parent complex)", "chain": "DENIDVTSNDPEFPSSPYSSSSPCGLDSIHETSARLLFMAVKWAKNLPVFSSLPFRDQVILLEEAWSELFLLGAIQWSLPLDSCPLLAPPEASAAGGAQGRLTLASMETRVLQETISRFRALAVDPTEFACMKALVLFKPETRGLKDPEHVEALQDQSQVMLSQHSKAHHPSQPVRFGKLLLLLPSLRFITAERIELLFFRKTIGNTPMEKLLCDMFKN"}},
  "data": [
    {"variants_of": "B1", "experiment": "mammalian two hybrid assay; pBind-PNR L372R + pACT-PNR L372R; parent: 0.42; read off a plot", "units": {"response": "RLU"}, "values": [
      {"variant": "chain 1 L181R", "response": "~0.045"}
    ]},
    {"variants_of": "B1", "experiment": "mammalian two hybrid assay; pBind-PNR L375R + pACT-PNR L375R; parent: 0.42; read off a plot", "units": {"response": "RLU"}, "values": [
      {"variant": "chain 1 L184R", "response": "~0.045"}
    ]},
    {"variants_of": "B1", "experiment": "mammalian two hybrid assay; pBind-PNR L372/375R + pACT-PNR L372/375R; parent: 0.42; read off a plot", "units": {"response": "RLU"}, "values": [
      {"variant": "chain 1 L181R, chain 1 L184R", "response": "~0.055"}
    ]}
  ]
}
